Experimental data published in the nanobody polyreactivity screen of Harvey et al. (2022).

Test: yeast display, Sf9 membrane polyspecificity reagent, FACS + sequencing; frameworks hold sequencing errors
In short: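 Polyreactivity labels are assigned by the sorting gate from which each nanobody was recovered. The gates were low and high (top ~1%), set on anti-HA fluorescence for expression and streptavidin fluorescence for reagent binding. Before sorting, galactose-induced (36–48 hours) yeast display cells were stained for 1 hour at 4 °C with 10% biotinylated, detergent-solubilized Sf9 membrane reagent.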

| Sequence | polyreactivity (PSR sort gate) |
| --- | --- |
| QVQLVESGGGLVQAGGSLRLSCAASGSTFSRYTMGWYRQAPGKERELVAAIRRSGASTYYADSVKGRFTISRDNAKNTVYLQMNSLKPEDTAVYYCAVGRYRYGYWGQGTQVTVSS | high polyreactivity |
| QVQLVESGGGLVQAGGSLRLSCAASGSTFSRYTMGWYRQAPGKERELVASITRGGSTNYADSVKGRFTISRDNAKNTVYLQMNSLKPEDTAVYYCAARTARVSRYDYWGQGTQVTVSS | high polyreactivity |
| QVQLVESGGGLVQAGGSLRLSCAASGSTFSSNAMGWYRQAPGKERELVAAISSGGSTNYADSVKGRFTISRDNAKNTVYLQMNSLKPEDTAVYYCAADRSPEYYWGQGTQVTVSS | low polyreactivity |
| QVQLVESGGGLVQAGGSLRLSCAASGSTFSSYAMGWYRPAPGKERELVARITSGGSTYYADSVKGRFTISRDNAKNTVYLQMNSLKPEDTAVYYCAARGYYYRSRVSQFKYDYWGQGTQVTVSS | high polyreactivity |
| QVQLVESGGGLVQAGGSLRLSCAASGSTFSSYAMGWYRQAPGKERELVAAISTSGGRTYYADSVKGRFTISRDNAKNTVYLQMNSLKPEDTAVYYCAKKGIGYVRYYYWGQGTQVTVSS | high polyreactivity |
| QVQLVESGGGLVQAGGSLRLSCAASGSTFSSYAMGWYRQAPGKERELVAAITSGGSTNYADSVKGRFTISRDNAKNTVYLQMNSLKPEDTAVYYCNAQINDFIFVYDYWGQGTQVTVSS | low polyreactivity |
| QVQLVESGGGLVQAGGSLRLSCAASGSTFSSYGMGWYRQAPGKERELVASITIRGGSTYYADSVKGRFTISRDNAKNTVYLQMNSLKPEDTAVYYCAADVTNRGTWVIYGYYYWGQGTQVTVSS | low polyreactivity |
| QVQLVESGGGLVQAGGSLRLSCAASGSTFSSYTMGWYRQAPGKERELVATINSRGDNTYYADSVKGRFTISRDNAKNTVYLQMNSLKPEDTAVYYCAARSRRHDFDYWGQGTQVTVSS | high polyreactivity |
| QVQLVESGGGLVQAGGSLRLSCAASGSTFSTNAMGWYRQAPGKERELVARISAGRTNYADSVKGRFTISRDNAKNTVYLQMNSLKPEDTAVYYCNADYQYNRYSRVVGGHYYWGQGTQVTVSS | low polyreactivity |
| QVQLVESGGGLVQAGGSLRLSCAASGSTFSTYAMGWYRQAPGKERELVAAIRWSGGSTYYADSVKGRFTISRDNAKNTVYLQMNSLKPEDTAVYYCATDAPDRTDSDSGFDAGYDYWGQGTQVTLSS | low polyreactivity |
| QVQLVESGGGLVQAGGSLRLSCAASGSTFSTYAMGWYRQAPGKERELVAAITSSGGSTYYADSVKGRFTISRDNAKNTVYLQMNSLKPEDTAVYYCAAGRGYWWWYGYDYWGQGTQVTVSS | low polyreactivity |
| QVQLVESGGGLVQAGGSLRLSCAASGSTFSTYAMGWYRQAPGKERELVARITVSVGSTYYADSVKGRFTMSRDNAKNTVYLQMNSLKPEDTAVYYCAVGSDEVYFVGDYEYWGQGTQVTVSS | low polyreactivity |
| QVQLVESGGGLVQAGGSLRLSCAASGSTFSVNAMGWYRQAPGKEREFVAAITGDGVTTYYADSVKGRFTISRDNAKNTVYLQMNSLKPEDTAVYYCAAEDIRQTTGYDYWGQGTQVTVSS | high polyreactivity |
| QVQLVESGGGLVQAGGSLRLSCAASGSTFSVNAMGWYRQAPGKEREFVARITWRGGSTYYADSVKRRFTISRDNAKNTVYLPMNSLKPEDTAVYYCAATLRYWWRSSYEDYYWGQGTQVTVSS | low polyreactivity |
| QVQLVESGGGLVQAGGSLRLSCAASGSTFSVYAMGWYRQAPGKERELVASISSSVGRTFYADSVKGRFTISRDNSKNTVYLQMNSLKPEDTAVYYCNAGVRYSGFDYWGQGTQVTVSS | high polyreactivity |
| QVQLVESGGGLVQAGGSLRLSCAASGSTFSVYGMGWYRQGPGKERELVAAISGYGSRRYYADSLKGRFTISRDNAKNTVYLQMNSLKPEDTAVYYCAAVRRLLQGRTMYYWGQGTQVTVSS | high polyreactivity |
| QVQLVESGGGLVQAGGSLRLSCAASGSTFSVYTMGWYRQAPGKERELVAAITSGGTYYADSVKGRFTISRDNAKNTVYLQMNSLKPEDTAVYYCAADVLSVGKHYDYWGQCTQVTVSS | low polyreactivity |
| QVQLVESGGGLVQAGGSLRLSCAASGSTFSVYTMGWYRQAPGKERELVATISGGGSTYYADSVKGRFTISRDNAKNTVYLQMNSLKPEDTAVYYCNAQGYGIFTSSLDYWGQGTQVTVSS | low polyreactivity |
| QVQLVESGGGLVQAGGSLRLSCAASGSTFSWNTMGWYRQAPGKERELVAAISRRGGSTYYADSVKGRFTISRDNAKNTVYLQMNSLKPEDTAVYYCNAKYYYGHRPATAGRYYYWGQGTQVTVSS | high polyreactivity |
| QVQLVESGGGLVQAGGSLRLSCAASGSTFSWYAMGWYRQAPGKERELVATITGSGGSTYYADSVKGRFTISRDNAKNTVYLQMNSLKPEDTAVYYCALDRGYTRWIASHSYQYDYWGQGTQETVSS | low polyreactivity |
| QVQLVESGGGLVQAGGSLRLSCAASGSTFSWYSMGWYRQAPGKQRELVAAISSRGGRTYYADSVKGRFTISRDNAKNTVYLQMNSLKPDDTAVYFCAARSRRGEYDYWGQGTQVTVSS | high polyreactivity |

| Sequence | polyreactivity (PSR sort gate) |
| --- | --- |
| QVQLVESGGGLVQAGGSLRLSCAASGSTFSYNAMGWYRQAPGKERELVAAIRTSGGRTYYADSVKGRFTISRDNAKNTVYLQMNSLKPEDTAVYYCAKRWVYRYGYEYWGQGTQVTVSS | high polyreactivity |
| QVQLVESGGGLVQAGGSLRLSCAASGSTFSYNAMGWYRQAPGKERELVAAISKSGGSTSYADSVKGRFTISRDNAKNTVYLQMNSQKPEDTAVYYCNARYSRKYGYWGQGTQVTVSS | high polyreactivity |
| QVQLVESGGGLVQAGGSLRLSCAASGSTFSYNAMGWYRQAPGKERELVAAISRGDVSTYYADSVKGRFTISRDNAKNTVYLQMNSLKPEDTAVYYCAAYWYGSQYKWRYDYWGQGTQVTVSS | low polyreactivity |
| QVQLVESGGGLVQAGGSLRLSCAASGSTFSYYAMGWYRQAPGKERELVAAITTSGGRTYYADSVKGRFTISRDNAKNTVYLQMNSLKPEDTAVYYCNARSGRLGDYWGQGTQVTVSS | high polyreactivity |
| QVQLVESGGGLVQAGGSLRLSCAASGSTFSYYGMGWSRQAPGKERELVAAISWSGGSTYYADSVKGRFTISRDNAKNTVYLQMNSLKPEDTAVYYCARLDSAAEPRQYDYWGQGTQVTVSS | high polyreactivity |
| QVQLVESGGGLVQAGGSLRLSCAASGSTFSYYPMGWYREAPGQERELVAAISSRGSSTYYADSVKGRFTISRDNAKNTVYLQMNSLKPEDTAVYYCNAERVVYKWYDYWGQVTQVTVSS | high polyreactivity |
| QVQLVESGGGLVQAGGSLRLSCAASGSTFSYYTMGWYRQAPGKEREFVAAISNSGSRTYYADSVKGRFTISRDNAKNTVYLQMNSLKPEDTAVYYCNAAYGYRFPRDYWGQGTQVIVSS | high polyreactivity |
| QVQLVESGGGLVQAGGSLRLSCAASGSTFTANALGWYRQAPGKERELVAAITKSGGDTYYADSVKGRFTISRDNAKNTVYLQMNSLKPEDTAVYYCAAESSYFVALTQFYTVEFYYWGQGTQVTVSS | low polyreactivity |
| QVQLVESGGGLVQAGGSLRLSCAASGSTFTAYGMGWYRQAPGKERELVAAITWRGGRTYYADSVKGRFTISRDNAKNTVYLQMNSLKPEDTAVYYCAKGAVWRYTTKYGYDYWGQGTQVTVSS | high polyreactivity |
| QVQLVESGGGLVQAGGSLRLSCAASGSTFTAYTMGWYRQAPGKERELVAAISKIGTRTYYADSVKGRFTISRDNAKNTVYLQMNSLKPEDTAVYYCATGRSRVYNGRGDYWGQGTQVTVSS | high polyreactivity |
| QVQLVESGGGLVQAGGSLRLSCAASGSTFTDYAMGWYRQAPGKERELVAAIDSGGITNYADSVKGRFTISRDNAKNTVYLQMNSLKPEDTAVYYCAVEGEYLTPSGRYRLDYWGQGTQVTVSS | low polyreactivity |
| QVQLVESGGGLVQAGGSLRLSCAASGSTFTDYDMGWYRQAPGKERELVAAITSGGSTNYADSVKGRFTISRDNAKNTVYLQMISLKPEDTAVYYCAAADADRKYDYWGQGTQVTVSS | low polyreactivity |
| QVQLVESGGGLVQAGGSLRLSCAASGSTFTDYTMGWYRQAPGKERELVAVISQSGGSTYYADSVKGRFTISRDNAKNTVYLQMNSLKPEDTAVYYCAADPREDNQDRYYWGQGTQVTVSS | high polyreactivity |
| QVQLVESGGGLVQAGGSLRLSCAASGSTFTFYAMGWYRQAPGKERELVATISSSGGSTYYADSVKGRFTISRDNAKNTVYLQMNSLKPEDTAVYYCTATTAPRDGKWQGGMDYWGQGTQVTVSS | low polyreactivity |
| QVQLVESGGGLVQAGGSLRLSCAASGSTFTGNAMGWYRQAPGKERELVASIRSGATTYYADSVKGRFTISRDNAKNTVYLQMNSLKPEDTAVYYCAKRYLGRRGDVYYWGQGTQVTVSS | high polyreactivity |
| QVQLVESGGGLVQAGGSLRLSCAASGSTFTGNDMGWYRQAPGKERELVASIRRGDRTYYADSVKGRFTISRDNAKNTVYLQMNSLKREDTAVYYCAKPVWWRVYRHGGRFGYWGQGTQVTVSS | low polyreactivity |
| QVQLVESGGGLVQAGGSLRLSCAASGSTFTGYAMGWYRQAPGQERELVAAISRSGGSTYYADSVKGRFTISRDNAKNTVYLQMNSLKPEDTAVYYCNARGFTRYTVGRNYWGQGTQVTVSS | high polyreactivity |
| QVQLVESGGGLVQAGGSLRLSCAASGSTFTINAKGWYRQAPGKERELVAAISWSGGTTYYADSVKGRFTISRDNAKNTVYLQMTSLKPEDTAVYYCAARSYYGYDYWGQGTQVTVSS | high polyreactivity |
| QVQLVESGGGLVQAGGSLRLSCAASGSTFTINVMGWYRQAPGKERELVAAINGGGRTNYADSVKGRFTFSRDNAKNTVYLQMNSLKPEDTAVYYCAADGLSHVRQMDYWGQGTQVTVSS | low polyreactivity |
| QVQLVESGGGLVQAGGSLRLSCAASGSTFTIYAMGWYRQAPGTERELVATIRAGGGRTSYADSVKGRFTISRDNAKNTVYLQMNSLKPEDTAVYYCAVYVRPTRYGYWGQGTQVTVSS | high polyreactivity |
